Earlier results in PMC5325457.

Biological target: Mms2 (Homo sapiens) (UniProt Q15819)
Sequence of UniProt Q15819 (Q15819 2-145): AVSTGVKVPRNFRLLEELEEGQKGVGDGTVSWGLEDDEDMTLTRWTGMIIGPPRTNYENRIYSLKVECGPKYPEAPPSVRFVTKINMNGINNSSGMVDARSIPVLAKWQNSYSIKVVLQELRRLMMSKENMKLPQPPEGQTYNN

Kd: 49 nM
Substance: Ubc13 (from UniProt P61088)
